Molecular target: Escherichia coli CTP synthase (ecCTPS), wild type (Escherichia coli) (UniProt P0A7E5)
Assay: cryo-EM structure

stoichiometry N: 4
Substance: Escherichia coli CTP synthase (ecCTPS), wild type (from UniProt P0A7E5 1-545) (enzyme)

From paper doi:10.1101/2023.10.19.563106
